The values that follow are results of earlier work, collected in paper PMC5176006.

The data set addresses IscU (Escherichia coli) (UniProt P0ACD4).
Chain of UniProt P0ACD4 (P0ACD4 whole entry): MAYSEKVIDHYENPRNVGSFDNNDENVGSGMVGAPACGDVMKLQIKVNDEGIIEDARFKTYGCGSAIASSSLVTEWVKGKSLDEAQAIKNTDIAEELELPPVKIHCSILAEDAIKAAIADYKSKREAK

For IscS (from UniProt P0A6B7), the Kd is 1000 nM.

By Kd is commonly meant the equilibrium constant for the complex coming apart.
